Experimental data: paper doi:10.1101/633420

Biological target: PRR (UniProt P10636)
Test: fluorescence correlation spectroscopy

Sequence of UniProt P10636 (P10636 466-561): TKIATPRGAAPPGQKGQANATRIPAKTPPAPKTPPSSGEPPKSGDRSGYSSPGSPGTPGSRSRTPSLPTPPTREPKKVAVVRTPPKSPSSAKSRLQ
Sequence of tubulin (Q6B856 whole entry, looked up): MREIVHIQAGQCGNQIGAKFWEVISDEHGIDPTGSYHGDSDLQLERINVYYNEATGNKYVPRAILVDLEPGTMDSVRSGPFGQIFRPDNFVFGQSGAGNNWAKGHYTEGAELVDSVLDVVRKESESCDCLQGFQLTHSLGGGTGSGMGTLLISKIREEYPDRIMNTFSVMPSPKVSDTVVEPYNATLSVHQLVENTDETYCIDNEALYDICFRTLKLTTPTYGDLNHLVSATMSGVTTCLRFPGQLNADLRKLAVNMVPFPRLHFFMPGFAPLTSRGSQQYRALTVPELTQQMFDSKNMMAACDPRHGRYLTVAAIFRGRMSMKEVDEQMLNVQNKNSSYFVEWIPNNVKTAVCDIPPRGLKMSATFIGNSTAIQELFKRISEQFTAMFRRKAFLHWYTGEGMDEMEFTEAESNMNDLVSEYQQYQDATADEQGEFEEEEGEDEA

Substance: tubulin (from UniProt Q6B856 1-445) (complex)
- Kd: 900 nM
- stoichiometry N (tubulin dimers per PRR): 2
